The labels stand for the following.
B1: pY0192 VL W96A (Fab, V domains shown)
VH: EVQLVESGGGLVQPGGSLRLSCAASGYTFTNYGINWVRQAPGKGLEWVGWINTYTGEPTYAADFKRRFTFSLDTSKSTAYLQMNSLRAEDTAVYYCAKYPHYYGSSHWYFDVWGQGTL
VL: DIQLTQSPSSLSASVGDRVTITCRANEQLSNYLNWYQQKPGKAPKVLIYFTSSLHSGVPSRFSGSGSGTDFTLTISSLQPEDFATYYCQQYSTVPATFGQGTKVEIKR
B2: pY0192 VH N31A (Fab, V domains shown)
VH: EVQLVESGGGLVQPGGSLRLSCAASGYTFTAYGINWVRQAPGKGLEWVGWINTYTGEPTYAADFKRRFTFSLDTSKSTAYLQMNSLRAEDTAVYYCAKYPHYYGSSHWYFDVWGQGTL
VL: DIQLTQSPSSLSASVGDRVTITCRANEQLSNYLNWYQQKPGKAPKVLIYFTSSLHSGVPSRFSGSGSGTDFTLTISSLQPEDFATYYCQQYSTVPWTFGQGTKVEIKR
B3: pY0192 VH W108A (Fab, V domains shown)
VH: EVQLVESGGGLVQPGGSLRLSCAASGYTFTNYGINWVRQAPGKGLEWVGWINTYTGEPTYAADFKRRFTFSLDTSKSTAYLQMNSLRAEDTAVYYCAKYPHYYGSSHAYFDVWGQGTL
VL: DIQLTQSPSSLSASVGDRVTITCRANEQLSNYLNWYQQKPGKAPKVLIYFTSSLHSGVPSRFSGSGSGTDFTLTISSLQPEDFATYYCQQYSTVPWTFGQGTKVEIKR
B4: pY0192 VH Y99A (Fab, V domains shown)
VH: EVQLVESGGGLVQPGGSLRLSCAASGYTFTNYGINWVRQAPGKGLEWVGWINTYTGEPTYAADFKRRFTFSLDTSKSTAYLQMNSLRAEDTAVYYCAKAPHYYGSSHWYFDVWGQGTL
VL: DIQLTQSPSSLSASVGDRVTITCRANEQLSNYLNWYQQKPGKAPKVLIYFTSSLHSGVPSRFSGSGSGTDFTLTISSLQPEDFATYYCQQYSTVPWTFGQGTKVEIKR
B5: pY0192 VH N52A (Fab, V domains shown)
VH: EVQLVESGGGLVQPGGSLRLSCAASGYTFTNYGINWVRQAPGKGLEWVGWIATYTGEPTYAADFKRRFTFSLDTSKSTAYLQMNSLRAEDTAVYYCAKYPHYYGSSHWYFDVWGQGTL
VL: DIQLTQSPSSLSASVGDRVTITCRANEQLSNYLNWYQQKPGKAPKVLIYFTSSLHSGVPSRFSGSGSGTDFTLTISSLQPEDFATYYCQQYSTVPWTFGQGTKVEIKR
B6: pY0192 VH W50A (Fab, V domains shown)
VH: EVQLVESGGGLVQPGGSLRLSCAASGYTFTNYGINWVRQAPGKGLEWVGAINTYTGEPTYAADFKRRFTFSLDTSKSTAYLQMNSLRAEDTAVYYCAKYPHYYGSSHWYFDVWGQGTL
VL: DIQLTQSPSSLSASVGDRVTITCRANEQLSNYLNWYQQKPGKAPKVLIYFTSSLHSGVPSRFSGSGSGTDFTLTISSLQPEDFATYYCQQYSTVPWTFGQGTKVEIKR
B7: pY0192 VH Y32A (Fab, V domains shown)
VH: EVQLVESGGGLVQPGGSLRLSCAASGYTFTNAGINWVRQAPGKGLEWVGWINTYTGEPTYAADFKRRFTFSLDTSKSTAYLQMNSLRAEDTAVYYCAKYPHYYGSSHWYFDVWGQGTL
VL: DIQLTQSPSSLSASVGDRVTITCRANEQLSNYLNWYQQKPGKAPKVLIYFTSSLHSGVPSRFSGSGSGTDFTLTISSLQPEDFATYYCQQYSTVPWTFGQGTKVEIKR
B8: pY0192 VH S106A (Fab, V domains shown)
VH: EVQLVESGGGLVQPGGSLRLSCAASGYTFTNYGINWVRQAPGKGLEWVGWINTYTGEPTYAADFKRRFTFSLDTSKSTAYLQMNSLRAEDTAVYYCAKYPHYYGSAHWYFDVWGQGTL
VL: DIQLTQSPSSLSASVGDRVTITCRANEQLSNYLNWYQQKPGKAPKVLIYFTSSLHSGVPSRFSGSGSGTDFTLTISSLQPEDFATYYCQQYSTVPWTFGQGTKVEIKR
B9: pY0192 VH A62S (Fab, V domains shown)
VH: EVQLVESGGGLVQPGGSLRLSCAASGYTFTNYGINWVRQAPGKGLEWVGWINTYTGEPTYASDFKRRFTFSLDTSKSTAYLQMNSLRAEDTAVYYCAKYPHYYGSSHWYFDVWGQGTL
VL: DIQLTQSPSSLSASVGDRVTITCRANEQLSNYLNWYQQKPGKAPKVLIYFTSSLHSGVPSRFSGSGSGTDFTLTISSLQPEDFATYYCQQYSTVPWTFGQGTKVEIKR
notes: Ala-scan variant of pY0192; Fab on phage
B10: pY0192 VH F64A (Fab, V domains shown)
VH: EVQLVESGGGLVQPGGSLRLSCAASGYTFTNYGINWVRQAPGKGLEWVGWINTYTGEPTYAADAKRRFTFSLDTSKSTAYLQMNSLRAEDTAVYYCAKYPHYYGSSHWYFDVWGQGTL
VL: DIQLTQSPSSLSASVGDRVTITCRANEQLSNYLNWYQQKPGKAPKVLIYFTSSLHSGVPSRFSGSGSGTDFTLTISSLQPEDFATYYCQQYSTVPWTFGQGTKVEIKR
notes: as for B9
B11: pY0192 VH D111A (Fab, V domains shown)
VH: EVQLVESGGGLVQPGGSLRLSCAASGYTFTNYGINWVRQAPGKGLEWVGWINTYTGEPTYAADFKRRFTFSLDTSKSTAYLQMNSLRAEDTAVYYCAKYPHYYGSSHWYFAVWGQGTL
VL: DIQLTQSPSSLSASVGDRVTITCRANEQLSNYLNWYQQKPGKAPKVLIYFTSSLHSGVPSRFSGSGSGTDFTLTISSLQPEDFATYYCQQYSTVPWTFGQGTKVEIKR
notes: as for B9
B12: pY0192 VH D63A (Fab, V domains shown)
VH: EVQLVESGGGLVQPGGSLRLSCAASGYTFTNYGINWVRQAPGKGLEWVGWINTYTGEPTYAAAFKRRFTFSLDTSKSTAYLQMNSLRAEDTAVYYCAKYPHYYGSSHWYFDVWGQGTL
VL: DIQLTQSPSSLSASVGDRVTITCRANEQLSNYLNWYQQKPGKAPKVLIYFTSSLHSGVPSRFSGSGSGTDFTLTISSLQPEDFATYYCQQYSTVPWTFGQGTKVEIKR
notes: as for B9
B13: pY0192 VH F29A (Fab, V domains shown)
VH: EVQLVESGGGLVQPGGSLRLSCAASGYTATNYGINWVRQAPGKGLEWVGWINTYTGEPTYAADFKRRFTFSLDTSKSTAYLQMNSLRAEDTAVYYCAKYPHYYGSSHWYFDVWGQGTL
VL: DIQLTQSPSSLSASVGDRVTITCRANEQLSNYLNWYQQKPGKAPKVLIYFTSSLHSGVPSRFSGSGSGTDFTLTISSLQPEDFATYYCQQYSTVPWTFGQGTKVEIKR
notes: as for B9
B14: pY0192 VH E57A (Fab, V domains shown)
VH: EVQLVESGGGLVQPGGSLRLSCAASGYTFTNYGINWVRQAPGKGLEWVGWINTYTGAPTYAADFKRRFTFSLDTSKSTAYLQMNSLRAEDTAVYYCAKYPHYYGSSHWYFDVWGQGTL
VL: DIQLTQSPSSLSASVGDRVTITCRANEQLSNYLNWYQQKPGKAPKVLIYFTSSLHSGVPSRFSGSGSGTDFTLTISSLQPEDFATYYCQQYSTVPWTFGQGTKVEIKR
notes: as for B9
B15: pY0192 VH A61S (Fab, V domains shown)
VH: EVQLVESGGGLVQPGGSLRLSCAASGYTFTNYGINWVRQAPGKGLEWVGWINTYTGEPTYSADFKRRFTFSLDTSKSTAYLQMNSLRAEDTAVYYCAKYPHYYGSSHWYFDVWGQGTL
VL: DIQLTQSPSSLSASVGDRVTITCRANEQLSNYLNWYQQKPGKAPKVLIYFTSSLHSGVPSRFSGSGSGTDFTLTISSLQPEDFATYYCQQYSTVPWTFGQGTKVEIKR
notes: as for B9

Some results are limits rather than exact numbers.

The target of this test is T1, VEGF (human, UniProt P15692-4 27-191, limits assumed).
T1 construct: Biotinylated in the KDR-IgG ELISA, amine-coupled to the chip in BIAcore; also called biotinylated VEGF; vascular endothelial growth factor
T1 sequence (P15692 other isoform, or with tags, fused parts or gaps limits assumed): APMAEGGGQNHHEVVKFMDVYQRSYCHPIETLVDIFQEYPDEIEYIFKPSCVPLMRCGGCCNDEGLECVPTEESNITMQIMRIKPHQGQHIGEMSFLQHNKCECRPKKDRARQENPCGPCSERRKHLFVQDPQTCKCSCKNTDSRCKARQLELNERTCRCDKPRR
The test can be described thus: competitive phage-ELISA, relative to pY0192. How it is done: In such an assay, phages were first serially diluted to determine a fractional saturation titer which was then held constant and used to incubate with varying concentrations of VEGF (starting at 200 nM to 0 nM) in solution. The mixture was then transferred onto plate precoated with VEGF (2 μg/mL) and blocked with 5% instant milk, and allowed to equilibrate for 1 hour at room temperature. Thereafter, the phage solution was removed and the remaining bound phages were detected with a solution of rabbit anti-phage antibody mixed with goat anti-rabbit conjugate of horse radish peroxidase. After an hour incubation at room temperature, the plate was developed with a chromogenic substrate, o-phenylenediamine (Sigma). The reaction was stopped with addition of ½ volume of 2.5 M H₂SO₄. Optical density at 492 nm was measured on a spectrophotometric plate reader.
IC50's were determined in a competitive phage-ELISA assay.
In general terms: In an ELISA, binding on a coated surface is turned into a signal by an enzyme label.
As to B1, the IC50 (mut)/IC50 (wt) was over 150.
As to B2, the IC50 (mut)/IC50 (wt) is over 150.
The value for B3 was over 150; that for B4 was over 150; that for B5 was over 150.
Then B6, with over 150.
On to B7, for which the IC50 (mut)/IC50 (wt) is over 150.
Molecule B8 gave an IC50 (mut)/IC50 (wt) of over 150.
On to B9, for which the “IC50 (mut)/IC50 (wt)” value amounted to 1 ratio.
In the case of B10, the “IC50 (mut)/IC50 (wt)” value was determined as 1 ratio.
Consider B11, for which the “IC50 (mut)/IC50 (wt)” value worked out at 2 ratio.
Regarding B12, the “IC50 (mut)/IC50 (wt)” value is 1 ratio.
Then B13, with 16 ratio; and B14, with 2 ratio.
For B15, the “IC50 (mut)/IC50 (wt)” value was 1 ratio.

(Values after patent US20050112126A1 (Genentech, published 2005).)
